Consider one molecule from US20210363259A1 (Biogen, published 2021).

The target in test [1] is T1, integrin αvβ6 (human, UniProt P06756 31-1048; P18564 22-788).
T1 construct: also called the antigen
The experiment in a line: potency assay, binding relative to reference standard; stability sample, 3 months at 2-8° C.

Test [2] deals with T1, integrin αvβ6. The experiment in a line: potency assay, binding relative to reference standard; stability sample, 6 months at 2-8° C.
The target in test [3] is T1, integrin αvβ6. Briefly: potency assay, binding relative to reference standard; stability sample, 9 months at 2-8° C.
The target of test [4] is T1, integrin αvβ6. The experiment in a line: potency assay, binding relative to reference standard; stability sample, 12 months at 2-8° C.
The target of test [5] is T1, integrin αvβ6. Briefly: potency assay, binding relative to reference standard; stability sample, 24 months at 2-8° C.
The target of test [6] is T1, integrin αvβ6. The experiment in a line: DELFIA blocking assay, binding relative to reference standard; stability sample, 1 month at 2-8° C.
The target in test [7] is T1, integrin αvβ6. Briefly: DELFIA blocking assay, binding relative to reference standard; stability sample, 0 months at 2-8° C.
Test [8] has as its target T1, integrin αvβ6. The experiment in a line: DELFIA blocking assay, binding relative to reference standard; stability sample, 18 months at 2-8° C.

T1 sequence (P06756 31-1048, chain 1 of 2): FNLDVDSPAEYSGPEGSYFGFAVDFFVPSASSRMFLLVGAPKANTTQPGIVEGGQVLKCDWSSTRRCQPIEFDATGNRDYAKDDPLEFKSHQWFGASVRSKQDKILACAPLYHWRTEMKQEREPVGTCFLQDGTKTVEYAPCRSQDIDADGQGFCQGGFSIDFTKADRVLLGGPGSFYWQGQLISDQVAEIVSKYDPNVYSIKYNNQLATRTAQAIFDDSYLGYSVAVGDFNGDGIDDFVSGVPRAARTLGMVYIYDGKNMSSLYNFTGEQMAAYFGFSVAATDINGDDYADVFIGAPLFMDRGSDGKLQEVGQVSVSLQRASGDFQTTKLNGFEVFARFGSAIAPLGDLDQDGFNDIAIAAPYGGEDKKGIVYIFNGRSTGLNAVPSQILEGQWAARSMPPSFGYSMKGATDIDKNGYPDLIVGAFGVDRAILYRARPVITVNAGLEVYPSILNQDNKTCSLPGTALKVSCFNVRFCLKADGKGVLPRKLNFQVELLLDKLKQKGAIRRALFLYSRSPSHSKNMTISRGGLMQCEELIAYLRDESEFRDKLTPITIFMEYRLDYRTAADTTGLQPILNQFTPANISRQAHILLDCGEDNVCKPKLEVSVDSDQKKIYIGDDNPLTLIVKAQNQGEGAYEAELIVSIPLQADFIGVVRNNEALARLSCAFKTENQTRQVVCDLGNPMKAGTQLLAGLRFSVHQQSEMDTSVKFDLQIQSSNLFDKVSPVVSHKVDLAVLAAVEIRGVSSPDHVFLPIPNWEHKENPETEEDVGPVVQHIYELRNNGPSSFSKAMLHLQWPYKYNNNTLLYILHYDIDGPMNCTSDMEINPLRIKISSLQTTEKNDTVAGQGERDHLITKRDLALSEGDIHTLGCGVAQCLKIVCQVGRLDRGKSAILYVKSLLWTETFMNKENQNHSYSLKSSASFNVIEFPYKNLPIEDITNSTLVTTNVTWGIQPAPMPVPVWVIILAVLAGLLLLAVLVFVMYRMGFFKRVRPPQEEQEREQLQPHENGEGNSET
T1 sequence (P18564 22-788, chain 2 of 2): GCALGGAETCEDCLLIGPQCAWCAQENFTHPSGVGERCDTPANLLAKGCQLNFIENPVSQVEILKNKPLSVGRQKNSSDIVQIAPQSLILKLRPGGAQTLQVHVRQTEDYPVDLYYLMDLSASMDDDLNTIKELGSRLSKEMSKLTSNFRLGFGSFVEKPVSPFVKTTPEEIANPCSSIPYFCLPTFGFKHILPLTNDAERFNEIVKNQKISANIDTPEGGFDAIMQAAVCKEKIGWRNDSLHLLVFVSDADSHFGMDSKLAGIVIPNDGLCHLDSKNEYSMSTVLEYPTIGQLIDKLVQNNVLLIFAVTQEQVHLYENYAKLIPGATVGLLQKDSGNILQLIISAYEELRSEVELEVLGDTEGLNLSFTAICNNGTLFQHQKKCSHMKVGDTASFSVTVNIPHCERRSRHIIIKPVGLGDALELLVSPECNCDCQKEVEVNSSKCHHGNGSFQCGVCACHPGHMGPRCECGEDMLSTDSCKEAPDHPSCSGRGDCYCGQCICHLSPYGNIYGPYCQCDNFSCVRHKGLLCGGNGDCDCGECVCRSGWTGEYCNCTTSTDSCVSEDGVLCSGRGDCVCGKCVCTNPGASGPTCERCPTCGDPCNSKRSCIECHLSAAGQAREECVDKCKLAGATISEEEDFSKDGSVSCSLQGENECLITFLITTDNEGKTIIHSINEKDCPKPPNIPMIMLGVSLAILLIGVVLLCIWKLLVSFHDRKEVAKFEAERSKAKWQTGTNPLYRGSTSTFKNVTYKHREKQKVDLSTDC

B1: STX-100 (antibody, human IgG1, kappa, V domains shown)
VH: EVQLVESGGGLVQPGGSLRLSCAASGFTFSRYVMSWVRQAPGKGLEWVASISSGGRMYYPDTVKGRFTISRDNAKNSLYLQMNSLRAEDTAVYYCARGSIYDGYYVFPYWGQGTLVTVSS
VL: EIVLTQSPATLSLSPGERATLSCSASSSVSSSYLYWYQQKPGQAPRLLIYSTSNLASGIPARFSGSGSGTDFTLTISSLEPEDFAVYYCHQWSTYPPTFGGGTKVEIKR
notes: Humanized human IgG1/human kappa monoclonal antibody; It was tested as drug product in citrate/arginine/methionine/PS80 formulations; also called BG00011; BG11
For the molecule B1, the “Potency, % Binding relative to Reference Standard” value with integrin αvβ6 [1] came out at 102%; with integrin αvβ6 [2], 98%; with integrin αvβ6 [3] it was 95%; with integrin αvβ6 [4] it was 100%; in the test with integrin αvβ6 [5], 106%. Also, the “DELFIA Blocking - Binding relative to Reference Standard” value in the test with integrin αvβ6 [6] is 100%; with integrin αvβ6 [7] it was 101%; with integrin αvβ6 [8], 96%.
